{"source": "paper PMC3985465", "proteins": {"B1": {"name": "Papain (crude, from papaya latex) (protein)", "chain": "IPEYVDWRQKGAVTPVKNQGSCGSCWAFSAVVTIEGIIKIRTGNLNEYSEQELLDCDRRSYGCNGGYPWSALQLVAQYGIHYRNTYPYEGVQRYCRSREKGPYAAKTDGVRQVQPYNEGALLYSIANQPVSVVLEAAGKDFQLYRGGIFVGPCGNKVDHAVAAVGYGPNYILIKNSWGTGWGENGYIRIKRGTGNSYGVCGLYTSSFYPVKN"}}, "biological_target": "L′LKAAμ thiopeptide (thioleucine-Leu-Lys-Ala-Ala-7-methoxycoumarin-4-ylalanine)", "assay": "stopped-flow fluorescence kinetics", "settings": "other: stopped-flow fluorescence kinetics (global fit to a three-step scheme)"}
{"protein": "B1", "values": [{"measurement": "KS (enzyme-substrate complex, first step of the three-step scheme)", "result": "KS = k1/k–1 = 921 μM"}]}
